# Measurements taken from patent US20250355001A1 (GTINVENT, published 2025).
# Where no end group is shown, it is not given here. The star is where a group is joined. Biotin = O=C1N[C@H]2[C@H](CS[C@H]2CCCCC(=O)*)N1
# T1: tau fragment 369-391 (human)
# T1 peptide: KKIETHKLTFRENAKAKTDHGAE
# T2: tau fragment 369-390 (human)
# T2 peptide: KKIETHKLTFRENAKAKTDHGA
# T3: tau peptide 341-353 (human)
# T3 peptide: Biotin-SEKLDFKDRVQSK
# T4: tau peptide 306-323
# T4 peptide: Biotin-VQIVYKPVDLSKVTSKCG
# T5: tau peptide 313-336 (human)
# T5 peptide: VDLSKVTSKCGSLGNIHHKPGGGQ
# T6: tau fragment 1-49 (human)
# T6 construct: also called Tau 1-49
# T6 peptide: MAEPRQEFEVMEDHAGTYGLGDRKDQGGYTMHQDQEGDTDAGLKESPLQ
# B1: E2E8 scAb (scFv, not shown: small tags and cut ends)
# scFv: QVQLQESGPSLVKPSQTLSLTCTVSGFSLTDRGVAWVRQAPGKALEWVGTMRSGGTIDYNPALKSRLSITRDTSKSQVFLSLSSVTTEDMAMYYCARGYLSGDRYAWGRGLLVTVSSEGKSSGASGESKVDDQAVLTQPSSVSKSLGQSVSIACSGSRSDIGYGNYVSWFQQIPGSAPKLLIYDTNTRASGVPDRFSGARSGNTATLTINSLQAEDEADYYCANIDSSRSHLFGSGTRLTVLG
# notes: scAb
# B2: NS2A1 scAb (scFv, not shown: small tags and cut ends)
# scFv: QVQLQESGPSLVKPSQTLSLTCTVSGFSLSTNSVGWVRQAPGKAPEWVAGIDTDGEEGFNPVLKSRLSITRDTSKSQVSLSLSNVTSEDTAVYYCGRSYRTDGLAYGYVQAIDYWGPGLLVTISSEGKSSGASGESKVDDQSVLTQPSSVSGSPGQTVSITCSGSYIGSSGVGWFQQLPGSGLRTIIVASDGRPSGVPDGFSMSKSGNTATLTISSLQAEDEADYFCGSSDRTQYTGLFGSGTRLTVLG
# notes: scAb
# B3: S1D12 scAb (scFv, not shown: small tags and cut ends)
# scFv: QVQLQESGPSLVKPSQTLSLTCTVSGFSLNNNAVGWVRQAPGKVPESLVGCSSDGTCYYNSALKSRLDITRDTSKNQISLSLSSVTTDDAAVYYCTRGHYSIYGYDYLGTIDYWGPGLLVTVSSEGKSSGASGESKVDDQAVLTQPSSVSGSLGQRVSITCSGSSSNVGGGNSVGWYQHLPGSGLKTIIYDTNSRPSGVPDRFSGSRSGNTATLTINSLQAEDEGDYYCVTGDSTTHDDLVGSGTRLTVLG
# notes: scAb
# B4: E1B8 scAb (scFv, not shown: small tags and cut ends)
# scFv: QVQLQESGPSLVKPSQTLSLTCTVSGFSLTNYPVGWVRQAPGKALEWIGNIENDGSANYASALKSRLSITRDTSKNQVSLSLSSATTEDTAVYYCGREFGGSDGYTYFVDIDYWGPGLLVTVSSEGKSSGASGESKVDDQAVLTQPSSVSKSLGQSVSITCSGSSSNVGYGNYVSWFQQVPGSAPKILIYGATSRASGVPDRFSGSRSGNTATLTITSLQAEDEADYYCASYDGSSSGVFGSGTRLTVLG
# notes: scAb
# B5: E2A6 scAb (scFv, not shown: small tags and cut ends)
# scFv: QVQLQESGPSLVKPSQTLSLTCTVSGFSLTDWGVAWVRQAPGKALEWLGTMRSGGTTDDNPALKSRLSITRDTSKSQVSLSLSSVTTEDMAMYYCARGYLSGVHYAWGRGLLVTVSSEGKSSGASGESKVDDRVVRTQPSSVSKSLGQSVSITCSGSSSNVGAGNYVGWFQQVPGSAPKLLIYGATNRASGVPARFSGSKSGVTATLTITSLQAEDEADYYCASIDTSRSHIFGSGTRLTVLG
# notes: scAb
# B6: CB7 scAb (scFv, not shown: small tags and cut ends)
# scFv: QVQLQESGPSLVKPSQTLSLTCTVSGFSLTNYRVGWVRQAPGKALEWVSNIRSGGTTWYNPALKSRLSITADTSKSQVSLSLSSVTTEDTAVYYCARDSSGDLYAYDYWGPGLLVTVSSEGKSSGASGESKVDDQAVLTQPSSVSRSLGQSVSMTCSGSSSNVGYGNYMAWFQQVPGSAPKLLIYGATSRASGVPDRFSGSRSGNTATLTISSLQAEDEADYYCASYDSTSGGVFGSGTRLTVLG
# notes: scAb
# B7: MD9/MoD9 scAb (scFv, not shown: small tags and cut ends)
# scFv: QVRLQESGPSLVKSSQTLSLTCTVSGFSLTRESIAWVRQAPGKVPEWLGGVGIDGTSYYSPALKSRLSITRDTSKSQASLSLSSVATEDTAMYYCARNYIDFEYWGPGLLVTVSSEGKSSGASGESKVDDQAVLTQLSSVSGSLGQRISITCSGSSSNVGIYDVSWFQQLPGSGLRTVIYGTNNRPSGVPDRFSGSRSGNTATLTISSLQSEDEAIYYCAAGDSSTIAVFGSGTRLTVLG
# notes: scAb
# Key:
# dGAE (tau 297-391) [1] = biological target: T7, dGAE (tau 297-391) (human, UniProt P10636 614-708); assay: Biacore, for dGAE
# T7 construct: monomer; also called dGAE95
# Target sequence in this assay (P10636 614-708 limits assumed): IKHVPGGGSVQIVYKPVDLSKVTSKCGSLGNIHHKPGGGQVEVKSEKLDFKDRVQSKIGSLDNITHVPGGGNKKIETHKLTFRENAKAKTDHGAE
# [2] = biological target: T8, full length human tau protein 2N4R (hT40) (human, UniProt P10636 1-758); assay: direct ELISA
# T8 construct: recombinant; also called T441
# Procedure, shortened: (§1)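 Direct or streptavidin-capture binding ELISA with scAb dilution series; signal from anti-human C kappa HRP measured as absorbance.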
# dGA (tau 297-390) [3] = biological target: T9, dGA (tau 297-390) (human, UniProt P10636 614-707); assay: direct ELISA
# Procedure, shortened: as §1
# Target sequence in this assay (P10636 614-707 limits assumed): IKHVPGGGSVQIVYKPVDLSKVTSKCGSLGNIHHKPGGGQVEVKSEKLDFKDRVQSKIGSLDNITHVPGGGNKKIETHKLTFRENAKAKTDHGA
# dGAE (tau 297-391) [4] = biological target: T7, dGAE (tau 297-391); assay: SPR, scAb captured, tau analyte
# Procedure, shortened: (§2)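 scAb captured on flow cell 2 of an antibody-coated chip, flow cell 1 as reference; tau analyte injected 120 s association, 420 s dissociation, glycine pH 2.0 regeneration, in multi-cycle or single-cycle kinetics format. Responses fitted to a 1:1 binding model for kinetics and affinity.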
# Target sequence in this assay (P10636 614-708 limits assumed): as the sequence (P10636 614-708 limits assumed) above
# dGAE (tau 297-391) [5] = biological target: T7, dGAE (tau 297-391); assay: sandwich ELISA, dGAE titrated, S1D12 mAb capture
# Target sequence in this assay (P10636 614-708 limits assumed): as above
# [6] = biological target: T8, full length human tau protein 2N4R …; assay: SPR, summary table
# Procedure, shortened: as §2
# Target sequence in this assay (P10636 other isoform, or with tags, fused parts or gaps limits assumed): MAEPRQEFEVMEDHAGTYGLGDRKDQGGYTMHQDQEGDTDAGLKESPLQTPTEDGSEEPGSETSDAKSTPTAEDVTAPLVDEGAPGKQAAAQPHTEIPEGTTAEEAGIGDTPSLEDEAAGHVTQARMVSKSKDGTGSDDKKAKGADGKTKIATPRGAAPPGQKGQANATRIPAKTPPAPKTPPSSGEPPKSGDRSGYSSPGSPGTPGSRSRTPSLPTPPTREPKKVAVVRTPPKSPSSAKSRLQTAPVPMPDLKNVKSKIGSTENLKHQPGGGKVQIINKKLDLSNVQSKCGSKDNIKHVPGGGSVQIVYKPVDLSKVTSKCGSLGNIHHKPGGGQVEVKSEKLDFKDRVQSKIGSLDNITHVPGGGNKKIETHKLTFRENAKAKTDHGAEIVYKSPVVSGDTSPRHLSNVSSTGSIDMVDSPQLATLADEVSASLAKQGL
# tau fragment 337-368 [7] = biological target: tau fragment 337-368 (human); assay: direct ELISA
# Chain of tau fragment 337-368 (human) (peptide, as listed by the source): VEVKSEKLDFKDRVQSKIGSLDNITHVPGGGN
# [8] = biological target: T10, tau fragment 266-359 (R1-3) (human, UniProt P10636 583-676); assay: direct ELISA
# T10 sequence (P10636 583-676): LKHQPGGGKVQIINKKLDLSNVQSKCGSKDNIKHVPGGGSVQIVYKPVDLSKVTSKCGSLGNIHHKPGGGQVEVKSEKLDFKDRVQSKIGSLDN
# tau fragment 369-391 [9] = biological target: T1, tau fragment 369-391; assay: direct ELISA
# tau fragment 369-390 [10] = biological target: T2, tau fragment 369-390; assay: direct ELISA
# [11] = biological target: T8, full length human tau protein 2N4R …; assay: SPR, scAb captured, tau analyte
# Procedure, shortened: as §2
# Target sequence in this assay (P10636 other isoform, or with tags, fused parts or gaps limits assumed): as the sequence (P10636 other isoform, or with tags, fused parts or gaps limits assumed) above
# dGA (tau 297-390) [12] = biological target: T9, dGA (tau 297-390); assay: SPR, scAb captured, tau analyte
# Procedure, shortened: as §2
# Target sequence in this assay (P10636 614-707 limits assumed): as the sequence (P10636 614-707 limits assumed) above
# [13] = biological target: T8, full length human tau protein 2N4R …; assay: hT40 ELISA
# Target sequence in this assay (P10636 other isoform, or with tags, fused parts or gaps limits assumed): as the sequence (P10636 other isoform, or with tags, fused parts or gaps limits assumed) above
# [14] = biological target: T8, full length human tau protein 2N4R …; assay: hT40 ELISA; remark: listed apart in the source
# Target sequence in this assay (P10636 other isoform, or with tags, fused parts or gaps limits assumed): as above
# tau fragment 186-350 = biological target: T11, tau fragment 186-350 (human, UniProt P10636 503-667); assay: direct ELISA
# T11 construct: also called m186-350
# T11 sequence (P10636 503-667): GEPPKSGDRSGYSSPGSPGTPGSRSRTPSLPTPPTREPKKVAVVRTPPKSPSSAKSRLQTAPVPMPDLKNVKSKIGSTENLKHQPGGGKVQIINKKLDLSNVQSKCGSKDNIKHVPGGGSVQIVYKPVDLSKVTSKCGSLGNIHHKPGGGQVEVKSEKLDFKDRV
# [15] = biological target: T10, tau fragment 266-359 (R1-3); assay: direct ELISA; remark: listed apart in the source
# dGAE (tau 297-391) [16] = biological target: T7, dGAE (tau 297-391); assay: direct ELISA
# tau fragment 337-368 [17] = biological target: tau fragment 337-368 (human); assay: direct ELISA; remark: listed apart in the source
# tau peptide 341-353 = biological target: T3, tau peptide 341-353; assay: ELISA on biotinylated peptide over streptavidin
# Description: A series of binding ELISA was performed using various truncated versions of the tau protein and 13mer peptide libraries spanning the entire hT40 molecule for mapping the epitopes of anti-tau scAbs (Full list of protein antigens used is given in Table 14). In general, ELISA plates were coated with 1 μg/ml hT40 or dGA or dGAE or other truncated versions of the protein and in the case of biotinylated peptides, plates were coated with 5 μg/ml Streptavidin followed by 1 μg/ml biotinylated peptide. The plates were blocked with 2% MPBS and scAb samples added at desired starting concentrations and double diluted across the plate. Binding was detected using anti-Human C Kappa HRP conjugated secondary antibody and the resulting immunoreaction was developed and absorbance values measured as described above.
# tau peptide 306-323 = biological target: T4, tau peptide 306-323; assay: peptide ELISA
# tau peptide 313-336 = biological target: T5, tau peptide 313-336; assay: peptide ELISA
# dGAE (tau 297-391) [18] = biological target: T7, dGAE (tau 297-391); assay: ELISA
# Procedure, shortened: as §1
# [19] = biological target: T8, full length human tau protein 2N4R …; assay: direct binding ELISA
# [20] = biological target: T8, full length human tau protein 2N4R …; assay: Biacore
# Procedure, shortened: as §2
# Target sequence in this assay (P10636 other isoform, or with tags, fused parts or gaps limits assumed): as the sequence (P10636 other isoform, or with tags, fused parts or gaps limits assumed) above
# tau fragment 1-49 = biological target: T6, tau fragment 1-49; assay: direct ELISA
# mouse tau = biological target: T12, mouse tau (mouse, UniProt P10637 2-733); assay: sandwich ELISA on mouse plasma, S1D12 mAb capture
# T12 construct: endogenous protein of mouse brain or plasma; also called endogenous mouse tau
# T12 sequence (P10637 other isoform, or with tags, fused parts or gaps limits assumed): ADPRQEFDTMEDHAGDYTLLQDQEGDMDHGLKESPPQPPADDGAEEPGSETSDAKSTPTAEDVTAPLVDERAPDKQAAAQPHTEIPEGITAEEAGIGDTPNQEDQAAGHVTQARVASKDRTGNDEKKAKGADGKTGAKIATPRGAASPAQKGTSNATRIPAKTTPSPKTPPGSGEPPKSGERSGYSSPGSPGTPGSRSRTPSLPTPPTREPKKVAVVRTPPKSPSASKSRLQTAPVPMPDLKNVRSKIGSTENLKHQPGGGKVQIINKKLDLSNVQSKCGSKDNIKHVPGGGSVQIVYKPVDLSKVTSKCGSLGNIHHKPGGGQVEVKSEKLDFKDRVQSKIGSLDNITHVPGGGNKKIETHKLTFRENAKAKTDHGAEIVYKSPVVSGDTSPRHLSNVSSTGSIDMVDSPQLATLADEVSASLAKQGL
# Description: After washing and blocking as normal, several known standard solutions were set up in triplicate starting at 20 ng/ml of the desired protein before double diluted in the remaining wells. Mouse samples were added to wells in duplicate with a blank in between each sample group. Line1 plasma was diluted 1:10 before addition to plate to account for its high concentration while other samples were diluted 1:2 to account for potential matrix effects. These samples were left to incubate at RT for 1 hour. HRP-conjugated secondary scAb (conjugation carried out according to manufacturer's guidelines, Abcam) was added to each well and left to incubate at RT for 1 hour. The ELISA was developed using SuperSignal ELISA Femto Substrate (Thermo Scientific) and total luminescence was read on Clariostar Plus plate reader (BMG Labtech). Tau concentrations were established using a 4-parameter fit on concentration curves generated from recombinant tau protein spiked into samples at known concentration. For WT and L66 hT40 was used as a calibrator while dGA was used for L1 calibration.
# dGA (tau 297-390) [21] = biological target: T9, dGA (tau 297-390); assay: sandwich ELISA #1, S1D12 mAb capture, sample C
# Target sequence in this assay (P10636 614-707 limits assumed): as the sequence (P10636 614-707 limits assumed) above
# Description: To this end, an experiment was set up to assess whether the concentrations of different tau species could be determined in spiked samples using various antibody pairings directed towards specific regions of the tau protein.
# (§3) Four spiked samples were added to the first wells of designated rows and all samples were double diluted in PBS across the plate including the standard. […] Secondary antibody anti HuCk HRP was added and the reaction was developed and read as described previously. For ELISA #2, 20 nM dGAE was added to the first well and double diluted across the plate for standard curve plotting. As for ELISA #1, spiked samples of unknown protein concentrations were added to respective wells in doubling dilutions. […] For ELISA #3, a standard curve was plotted using average absorbance values obtained from binding events of hT40, dGA and dGAE all at starting concentration of 20 nM.
# [22] = biological target: T13, human tau (hT40) with P301S and G335D of Line 66 mice (human, UniProt P10636 1-758); assay: sandwich ELISA on brain homogenate, S1D12 mAb capture
# T13 construct: transgene product in brain homogenate or plasma; also called L66 human tau
# Description: All animals were female, 7-8 months old except Line 66+/+ which were 5 months old. […] For brain lysate preparation, half brains were sectioned into four and the individual sections were homogenised in 400 μl of ice cold RIPA buffer (Cell signalling Technology) containing protease and phosphatase inhibitors. Total protein concentrations for individual samples were established by BCA-assay and each sample was subsequently diluted to 1 mg/ml for future experiments.
# Plate was washed as previously and then blocked for 1 hour at 37° C. in 2% MPBS. Brain homogenate samples (50 ng total protein) from each mouse type were added to the first wells and double diluted across the plate in PBS. These samples were left to incubate at RT for 1 hour. Various detection scAbs encompassing epitopes of interest were then added to the plate at 1 μg/ml and incubated for 1 h at RT. Secondary antibody used was anti-HuCk HRP and the assays were developed as described previously.
# [23] = biological target: T8, full length human tau protein 2N4R …; assay: sandwich ELISA, S1D12 mAb capture, scAb detection
# Procedure, shortened: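 Read-out was HRP anti-HuCk with absorbance at 450 nm (positive above 0.3 after background subtraction) or chemiluminescence, including directly HRP-conjugated scAbs.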
# Target sequence in this assay (P10636 other isoform, or with tags, fused parts or gaps limits assumed): as the sequence (P10636 other isoform, or with tags, fused parts or gaps limits assumed) above
# [24] = biological target: T8, full length human tau protein 2N4R …; assay: sandwich ELISA, hT40 titrated, S1D12 mAb capture, CB7 scAb at 1 µg/ml
# Description: as §3
# [25] = biological target: T8, full length human tau protein 2N4R …; assay: ELISA
# Procedure, shortened: as §1
# dGA (tau 297-390) [26] = biological target: T9, dGA (tau 297-390); assay: ELISA
# Procedure, shortened: as §1
# tau fragment 369-390 [27] = biological target: T2, tau fragment 369-390; assay: ELISA
# Procedure, shortened: as §1
# tau fragment 369-391 [28] = biological target: T1, tau fragment 369-391; assay: ELISA
# Procedure, shortened: as §1
binder,measurement,setting,value
B1,Kd,dGAE (tau 297-391) [1],0.4 nM
same,binding result,[2],no binding (tested: 25 ug/ml)
same,binding result,dGA (tau 297-390) [3],no binding (tested: 25 ug/ml)
same,Kd,dGAE (tau 297-391) [4],0.401 nM
same,koff,dGAE (tau 297-391) [4],0.000191 s⁻¹
same,kon,dGAE (tau 297-391) [4],477000 M⁻¹ s⁻¹
same,EC50 (read off the curve),dGAE (tau 297-391) [5],~0.7 nM
B2,Kd,[6],2.9 nM
same,binding result,tau fragment 337-368 [7],no binding (tested: 25 ug/ml)
same,binding result,[8],no binding (tested: 25 ug/ml)
same,binding result,tau fragment 369-391 [9],no binding (tested: 25 ug/ml)
same,binding result,tau fragment 369-390 [10],no binding (tested: 25 ug/ml)
same,Kd,[11],2.9 nM
same,koff,[11],0.000739 s⁻¹
same,kon,[11],252000 M⁻¹ s⁻¹
same,Kd,dGA (tau 297-390) [12],5.4 nM
same,koff,dGA (tau 297-390) [12],0.00102 s⁻¹
same,kon,dGA (tau 297-390) [12],188000 M⁻¹ s⁻¹
B3,Kd,[6],0.122 nM
same,EC50 (read off the curve),[13],~0.005 µg/mL
same,EC50 (read off the curve),[14],~1 µg/mL
same,EC50 (read off the curve),tau fragment 186-350,~2 µg/mL
same,EC50 (read off the curve),[15],~0.5 µg/mL
same,EC50 (read off the curve),dGAE (tau 297-391) [16],~3 µg/mL
same,EC50 (read off the curve),tau fragment 337-368 [17],~4 µg/mL
same,Kd,[11],0.122 nM
same,koff,[11],0.00015 s⁻¹
same,kon,[11],1.25e+06 M⁻¹ s⁻¹
same,Kd,dGA (tau 297-390) [12],0.344 nM
same,koff,dGA (tau 297-390) [12],0.000418 s⁻¹
same,kon,dGA (tau 297-390) [12],1.21e+06 M⁻¹ s⁻¹
same,EC50 (read off the curve),tau peptide 341-353,~0.8 µg/mL
B4,binding result,tau peptide 306-323,no binding (tested: 25 ug/ml)
same,EC50 (read off the curve),tau peptide 313-336,~2 µg/mL
same,Kd,dGA (tau 297-390) [12],17.7 nM
same,koff,dGA (tau 297-390) [12],0.00242 s⁻¹
same,kon,dGA (tau 297-390) [12],137000 M⁻¹ s⁻¹
B5,binding result,dGAE (tau 297-391) [18],binds
same,binding result,[19],no binding
B6,Kd,[20],5.2 nM
same,Kd,[6],5.19 nM
same,binding result,tau fragment 1-49,binds
same,Kd,[11],5.19 nM
same,koff,[11],0.000694 s⁻¹
same,kon,[11],133000 M⁻¹ s⁻¹
same,binding result,mouse tau,no binding
same,binding result,dGA (tau 297-390) [21],no binding (tested: 2 nM dGA)
same,binding result,[22],binds
same,LoD chemiluminescence detection,[23],3.33 ng/mL
same,LoD colourimetric detection,[23],15 ng/mL
same,EC50 (read off the curve),[24],~4 nM
B7,binding result,[25],binds
same,binding result,dGAE (tau 297-391) [18],binds
same,binding result,dGA (tau 297-390) [26],binds
same,binding result,tau fragment 369-390 [27],binds
same,binding result,tau fragment 369-391 [28],binds
